Results on 1 substance are retold here after patent publication US20150087527A1, “METHOD AND KIT FOR THE CLASSIFICATION AND PROGNOSIS OF TISSUE OR ORGAN FIBROSIS IN A REPARATIVE OR REACTIVE PROCESS” (VIVATECH, priority 2012, published 2015).

Data set [1] has as its system PI16 mRNA in NHDF (Normal Human Dermal Fibroblast). As to the kind of experiment: Timing of PI16 mRNA expression after TGFbeta treatment (RTqPCR). The settings on record: after 1 h of TGFbeta, FIG. 4A and B. The format is cell-based. The protocol: Quantitative real-time PCR (RT-qPCR) was done using 5 μL of 1:20 diluted cDNA on the LightCycler480 system (Roche) using Maxima SYBR Green qPCR Master Mix (Fermentas). Forward and reverse primers were designed by Eurofins (MWG, αSMA forward: […] (SEQ ID NO:1), αSMA reverse: […] (SEQ ID NO:2)) and a 100 μM stock was stored at −20° C. Forward and reverse primer pairs were used for each RT-qPCR reaction. The cycling conditions were as follows: an initial 95° C. for 10 minutes, followed by 45 cycles of 95° C. for 15 sec, 58° C. for 30 sec, 72° C. for 20 sec. LightCycler 480 SW 1.5 was used to evaluate the TM curves, to determine the Cp and to approximate the relative concentration for each amplification reaction.
NHDF (Normal Human Dermal Fibroblast) were treated with TGFbeta as described previously for different times (between 1 h and 96 h). After treatment mRNA were extracted and levels of PI16 mRNA were assessed by RTqPCR.
(In general: Real-time PCR tracks product formation cycle by cycle.)

Data set [2] relates to αSMA expression in NHDF. As to the kind of experiment: Ex vivo model for fibrosis or hypertrophic scar: αSMA expression by RT-qPCR and Western Blot. It is filed as cell-based, human. The settings on record: fibroblasts cultivated with TGF-β (10 ng/mL TGF-β1); FIGS. 1 and 2. The protocol:
To study the myofibroblasts involved in generating hypertrophic or keloid scars, NHDF were cultivated on collagen coated culture plates in DMEM-F12 (Invitrogen), supplemented with 10% FCS (Invitrogen), 5 μg/mL of insulin and 1 ng/mL of b-FGF (PromoKine) and 10 ng/mL of TGF-β1 (Promocell), as TGF-β1 is known to induce the expression of αSMA in fibroblasts (Desmouliere A, Geinoz A, Gabbiani F, Gabbiani G (1993) Transforming growth factor-beta 1 induces alpha-smooth muscle actin expression in granulation tissue myofibroblasts and in quiescent and growing cultured fibroblasts. J Cell Biol, 1993 July, 122(1): 103-111). […]
This αSMA expression was assessed by RT-qPCR (mRNA levels) and by Western Blot (protein).
Total proteins were extracted by scratching the cells with lysis buffer (TRIS, NaCl, NP40, EDTA, IMDTT) and incubated 30 min in ice. […] Protein concentration was determined according to BCA method (Sigma). […] Signals were detected by ECL chemiluminescence using UptiLight HS WB Substrate (Uptima, Interchim). Bands were digitized with a scanner and the ratio between all bands density of the same blot was calculated by software (ImageJ 1.43u, 64-bit). […]
After four days of experiment, treated fibroblasts were detached with TRIzol Reagent (Invitrogen) and stored at −80° C. […] Total RNA was quantified on the NanoDrop 2000c Spectrophotometer (Thermo Scientific). […]

For “TGF-β: TGF-β1 (Promocell), known to induce the expression of αSMA in fibroblasts”, the “PI16 mRNA up regulation after TGFbeta treatment” value in data set [1] was 3 ×. In data set [2], the “αSMA expression (mRNA and protein)” value is listed as “high level”.
